B1: bacteriophage T4 antisigma protein AsiA with a C-terminal hexahistidine tag (other)
chain: MNKNIDTVREIITVASILIKFSREDIVENRANFIAFLNEIGVTHEGRKLNQNSFRKIVSELTQEDKKTLIDEFNEGFEGVYRYLEMYTNKHHHHHH
notes: also called AsiAHis; AsiAHIS

Columns and labels:
[1] = target: consolidated ligand NH2-PVpYENVG6>(…ONH2); test: fluorescence-based titration assay in solution
[2] = target: T1, semisynthetic 600 amino acid-long sigma-70 derivative (ligation product of sigma-70 1-567 with the synthetic … (E. coli, UniProt P00579 1-567; P00579 568-600); test: Ni2+-NTA agarose co-immobilization, SDS-PAGE
T1 construct: range 1-567;range 568-600; also called semisynthetic ?^70
Method: (§1) The indicated proteins were loaded onto Ni²⁺-NTA-agarose beads (L) and the unbound protein was removed (F). The beads were extensively washed and the bound protein was eluted with buffer containing 100 mM imidazole (E).
(§2) A mixture of AsiAHis and recombinant σ⁷⁰ was loaded onto Ni²⁺-NTA agarose beads (lane 4) and the unbound material removed (lane 5). The beads were subsequently washed with 10 mM imidazole buffer and then eluted with 100 mM imidazole buffer.

[3] = target: T2, cleavage product containing the first 567 amino acids of sigma-70 (E. coli, UniProt P00579 1-567); test: Ni2+-NTA agarose co-immobilization, SDS-PAGE
T2 construct: range 1-567; also called ?^70 fragment
Method: as §1, §2

[4] = target: T3, E. coli RNA polymerase sigma-70 subunit, full-length recombinant (sigma is printed as a garbled character: … (E. coli, UniProt P00579 1-613)); test: Ni2+-NTA agarose co-immobilization, SDS-PAGE
T3 construct: range 1-613; also called full-length ?^70; recombinant ?^70
Method: as §1, §2

Molecule | Kd [1] [nM] | binding result [2] | binding result [3] | binding result [4]
Abl-[G^120C^121][SH2-^15N]SH(32), the ligation product of the Abl-SH3 and Abl-SH2 domains (from UniProt P00519 65-220) | 300 | – | – | –
B1 | – | binds | no binding | binds

From patent US20020151006A1 (ROCKEFELLER UNIVERSITY, published 2002)
